Holding throughout (assay): cell-based or functional assay
Test [1] deals with type A insulin receptor, P06213.
A further test concerns the target type A insulin receptor (UniProt P06213).
The target of test [2] is human IGF-1 receptor (human) (UniProt P08069).
In the next test the target is type B insulin receptor (UniProt P06213).
Test [3] concerns the target type B insulin receptor, P06213.

Square brackets hold non-standard residues; d marks the D form. Primed or numbered codes have the meaning given here. Ends that are not written are not given here. PEG4″ = 4-unit polyethylene glycol spacer; PEG8″ = 8-unit polyethylene glycol spacer

B1: DP3(SC): B^1(H5,10Y16L17K29)29-A^1(H8,N18,21) (ligand)
chain: GPEHLCGAHLVDALYLVCGDRGFYFNKKGIVDECCHRSCDLRRLENYCN
Consider B1, for which the % activity in vitro in test [1] was 0.03%.

B2: MIU-77 mono-20K-SC: B1-20K B^1(H5,10Y16L17K29)29-A^1(H8N18,21) (ligand)
chain: GPEHLCGAHLVDALYLVCGDRGFYFNKKGIVDECCHRSCDLRRLENYCN
Regarding B2, the % activity in vitro with type A insulin receptor is 0.1%.

B3: MIU-35: B^1(H5,10Y16L17)25-C^1-A^1(H8N18,21) (ligand)
chain: GPEHLCGAHLVDALYLVCGDRGFYGYGSSSRRAPQTGIVDECCHRSCDLRRLENYCN
For B3, the % (potency at the receptor, assay not named) with type A insulin receptor is 61.4%; in test [2], 3.2%; with type B insulin receptor it was 17.4%. In addition, the % Insulin Activity (in vitro, assay not named) in the test with type A insulin receptor amounted to 61.4%; in test [2] it was 3.2%; in the test with type B insulin receptor it was 17.4%.

B4: B^1(A5H10Y16L17)25-C^1-A^1(H8N18N21) (ligand)
chain: GPEALCGAHLVDALYLVCGDRGFYGYGSSSRRAPQTGIVDECCHRSCDLRRLENYCN
For B4, the figures for the % (potency at the receptor, assay not named) (in test [2]; with type B insulin receptor) were 2.5% and 5.7%, respectively.

B5: B^1(H5,10Y16L17A24)25-C^1-A^1(H8N18,N21) (ligand)
chain: GPEHLCGAHLVDALYLVCGDRGAYGYGSSSRRAPQTGIVDECCHRSCDLRRLENYCN
Consider B5, for which the % (potency at the receptor, assay not named) is 0.1% in the test with type A insulin receptor, 0.3% in test [2] and 0.4% in the test with type B insulin receptor.

B6: B^1(H5,10Y16L17)25-C^1-A^1(T8N18,21) (ligand)
chain: GPEHLCGAHLVDALYLVCGDRGFYGYGSSSRRAPQTGIVDECCTRSCDLRRLENYCN
Take B6: the % (potency at the receptor, assay not named) in test [3] is 8.4%; in test [1], 20.4%.

B7: MIU-56: C8-PEG20K B^1(H5,Y16,L17)25-PEG8-K-PEG4-A^1(N18,N21) (ligand)
chain: Ac-GPEHLCGAELVDALYLVCGDRGFY[PEG8″]K(PEG 20 kDa)[PEG4″]GIVDECCFRSCDLRRLENYCN
modifications: cysteine pairing not given here
On to B7, for which, in test [3], the Phosphorylation (EC50), % IR-B was 2%. In test [1], this molecule gave a % Insulin Activity (in vitro, assay not named) of 14.8% and a Phosphorylation (EC50), % IR-A of 14.8%.

B8: MIU-79 di-10K-SC: B1,A14-10K B^1(H5,10Y16L17R29)30-C^1des9-12-A^1(H8,K14,N18,21) (ligand)
chain: {PEG 10 kDa}-GPEHLCGAHLVDALYLVCGDRGFYFNKRTGYGSSSRRGIVDECCHRSCDLK(PEG 10 kDa)RLENYCN
modifications: ends and bridges not checked
B8: the figures for the % activity in vitro in test [3] and in test [1] were 0.2% and 1.7%, respectively.

B9: MIU-57: B1-PEG20K MIU-35 (ligand)
chain: {PEG 20 kDa}-GPEHLCGAHLVDALYLVCGDRGFYGYGSSSRRAPQTGIVDECCHRSCDLRRLENYCN
modifications: ends and bridges not checked
Turning to B9, in test [3], the % (potency at the receptor, assay not named) was found to be 1.1%; the % Insulin Activity (in vitro, assay not named) was found to be 1.1%; the Phosphorylation (EC50), % IR-B came to 1.1%. In test [1], this molecule returned a % (potency at the receptor, assay not named) of 4.5%; a % Insulin Activity (in vitro, assay not named) of 3.1%; a Phosphorylation (EC50), % IR-A of 4.5%.

B10: DP3(TC): B^1(H5,10Y16L17K29)29:A^1(H8,N18,21) (ligand)
chain 1: GPEHLCGAHLVDALYLVCGDRGFYFNKK
chain 2: GIVDECCHRSCDLRRLENYCN
B10: the values for the % activity in vitro in test [3] and in test [1] were 33.1% and 160%, respectively.

B11: MIU-78 mono-20K-TC: B1-20K B^1(H5,10Y16L17K29)29:A^1(H8N18,21) (ligand)
chain 1: GPEHLCGAHLVDALYLVCGDRGFYFNKK
chain 2: GIVDECCHRSCDLRRLENYCN
Take B11: the % activity in vitro was 8.2% in the test with type A insulin receptor and 3.2% in the test with type B insulin receptor.

B12: MIU-43 DP8Mut3: B^1(H5,10Y16L17R29)30-C^1des9-12-A^1(H8,N18,21) (ligand)
chain: GPEHLCGAHLVDALYLVCGDRGFYFNKRTGYGSSSRRGIVDECCHRSCDLRRLENYCN
As to B12, the % activity in vitro in test [3] is 16.7%; in test [1] it was 97.5%.

B13: DP8Mut3KA14: B^1(H5,10Y16L17R29)30-C^1des9-12-A^1(H8,K14,N18,21) (ligand)
chain: GPEHLCGAHLVDALYLVCGDRGFYFNKRTGYGSSSRRGIVDECCHRSCDLKRLENYCN
Consider B13, for which the % activity in vitro in test [3] came out at 12.6%; in test [1] it was 132%.

B14: di-10K-TC: B1,A14-10K B^1(H5,10Y16L17R29)29:A^1(H8K14N18,21) (ligand)
chain 1: {PEG 10 kDa}-GPEHLCGAHLVDALYLVCGDRGFYFNKR
chain 2: GIVDECCHRSCDLK(PEG 10 kDa)RLENYCN
modifications: ends and bridges not checked
On to B14, for which the results for the % activity in vitro in test [3] and in test [1] were 2.1% and 6.4%, respectively.

B15: GE5W-B^1(A5H10Y16L17)25-C^1-A^1(H8N18N21) (ligand)
chain: GEEEEEWGPEALCGAHLVDALYLVCGDRGFYGYGSSSRRAPQTGIVDECCHRSCDLRRLENYCN
B15: the % (potency at the receptor, assay not named) with type A insulin receptor was determined as 8.6%; in test [2], 0.3%; with type B insulin receptor, 2.3%.

B16: GE5W-B^1(H5,10Y16L17)25-C^1-A^1(A1H8N18,21) (ligand)
chain: GEEEEEWGPEHLCGAHLVDALYLVCGDRGFYGYGSSSRRAPQTAIVDECCHRSCDLRRLENYCN
As for B16, the % (potency at the receptor, assay not named) is 0.7% in test [3] and 2.1% in test [1].

The record behind these values is patent publication US20150274802A1.
